Key:
[1] = molecular target: 1N3R Tau (human) (UniProt P10636)
[2] = molecular target: 1N4R Tau (human) (UniProt P10636)

| disaggregation of 1N3R Tau fibrils with HSC70, HSPA4 and ATP: Tau shifted to the supernatant fraction (centrifugation, immunoblot) [1] | disaggregation of 1N4R Tau fibrils with HSC70, HSPA4 and ATP: Tau shifted to the supernatant fraction (centrifugation, immunoblot) [2] | Substance |
| --- | --- | --- |
| 50% | 26% | DNAJB1 (from UniProt P25685 1-340) (natural protein) |
| 50% | 36% | DNAJB4 (from UniProt Q9UDY4 1-337) (natural protein) |

Source: paper PMC7363153
